Measurements published in patent publication US20140243255A1.

Molecular target: Mtb ClpP1P2 protease complex (one heptameric ClpP1 ring and one heptameric ClpP2 ring) (Mycobacterium tuberculosis) (UniProt P0A527)

Substance | Kd
Z-Leu-leucinal (peptide) | 0.24 mM
Z-Leu-Leu (peptide) | 2.2 mM
